One substance from patent US20220409550A1 can be followed below.

Experiment [1] concerns the target murine PD-L1 (50010-M08H, Sino biological) (murine) (UniProt Q9EP73). Put plainly: SPR.
Experiment [2] concerns the target murine PD-L2 (50804-M08H, Sino Biological) (murine) (UniProt Q9WUL5). Put plainly: SPR. For orientation: Surface plasmon resonance follows binding to a sensor surface in real time, without labels.
The target of experiment [3] is murine PD-L1 on CHO-K1 cells (murine) (UniProt Q9EP73). Put plainly: cell-based or functional assay.
murine PD-L1 on CHO-K1 cells (murine), sequence (Q9EP73 19-290): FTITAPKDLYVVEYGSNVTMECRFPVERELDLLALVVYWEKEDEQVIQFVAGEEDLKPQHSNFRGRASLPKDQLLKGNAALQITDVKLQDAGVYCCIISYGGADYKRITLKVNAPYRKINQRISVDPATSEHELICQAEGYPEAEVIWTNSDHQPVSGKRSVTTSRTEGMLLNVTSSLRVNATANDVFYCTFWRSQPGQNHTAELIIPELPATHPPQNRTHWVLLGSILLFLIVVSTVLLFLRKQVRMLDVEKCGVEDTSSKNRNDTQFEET

murine PD-L1 (50010-M08H, Sino biological) (murine), sequence (Q9EP73 19-238, stated change not applied): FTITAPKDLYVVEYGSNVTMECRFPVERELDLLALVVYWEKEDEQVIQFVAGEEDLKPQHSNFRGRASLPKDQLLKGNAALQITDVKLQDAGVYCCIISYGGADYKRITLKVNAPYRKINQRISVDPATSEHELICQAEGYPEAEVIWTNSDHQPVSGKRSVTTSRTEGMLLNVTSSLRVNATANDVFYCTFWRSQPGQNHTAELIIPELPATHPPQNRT
murine PD-L2 (50804-M08H, Sino Biological) (murine), sequence (Q9WUL5 20-219, stated change not applied): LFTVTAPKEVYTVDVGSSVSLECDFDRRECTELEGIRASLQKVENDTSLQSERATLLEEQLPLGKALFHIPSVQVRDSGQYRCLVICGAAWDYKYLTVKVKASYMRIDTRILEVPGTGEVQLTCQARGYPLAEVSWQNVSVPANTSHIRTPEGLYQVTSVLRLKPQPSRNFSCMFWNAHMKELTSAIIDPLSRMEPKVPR

Regarding “PD-1-decorated nanocage (PdNC) (from UniProt P02794 1-183)”, the Kd is 3.81E-10 ? in experiment [1] and 2.07E-9 ? in experiment [2]. Also, the half maximal effective concentration (EC50), NFAT-mediated luciferase expression, bioluminescent PD-1/PD-L1 blockade bioassay in experiment [3] worked out at 0.761 nM.
